Data taken from article PMC10381965 (2022).

B1: CENP-A^END-2 peptide (peptide)
peptide: Ac-AGDQQSINDRALSLLQRTRATKNW-NH2
B2: CENP-A^END-2-R37A peptide (peptide)
peptide: Ac-AGDQQSINDAALSLLQRTRATKNW-NH2

Target: CENP-ΔQU complex (CENP-Q^1–294 and CENP-U^30–266) (S. cerevisiae, UniProt P53298 1-294; P38313 30-266)
Assay: ITC

| Binder | Kd [µM] |
| --- | --- |
| B1 | 0.66 |
| B2 | 9.67 |
